Assay [1] concerns the target T1, human IL6R (R and D systems cat #227-SR/CF) (human, UniProt P08887 20-358).
T1 chain: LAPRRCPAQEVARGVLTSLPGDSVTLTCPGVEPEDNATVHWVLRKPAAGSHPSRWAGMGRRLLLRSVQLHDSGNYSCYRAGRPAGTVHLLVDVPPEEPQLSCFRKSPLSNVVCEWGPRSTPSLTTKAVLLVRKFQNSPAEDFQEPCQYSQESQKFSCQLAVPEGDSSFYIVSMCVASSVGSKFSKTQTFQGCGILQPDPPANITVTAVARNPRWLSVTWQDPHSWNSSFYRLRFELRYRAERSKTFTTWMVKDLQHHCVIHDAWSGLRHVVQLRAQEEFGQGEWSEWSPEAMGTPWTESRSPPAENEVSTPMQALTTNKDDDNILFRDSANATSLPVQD
Description: ELISA; apparent, printed beside curve.

Assay [2] addresses T1, human IL6R (R and D systems cat …). Kind of assay: ELISA; apparent, printed beside curve.

Where two headings read alike, the source gives them in different places.

B1: Av1 antibody (antibody, V domains shown)
VH: QVQLQESGPGLVRPSQTLSLTCTVSGYSITSDHAWSWVRQPPGRGLEWIGYISYSGITTYNPSLKSRVTISRDNSKNTLYLQMNSLRAEDTAVYYCARSLARTTAMDYWGQGSLVTVSS
VL: DIQMTQSPSSLSASVGDRVTITCRASQDISSYLNWYQQKPGKAPKLLIYYTSRLHSGVPSRFSGSGSGTDFTFTISSLQPEDIATYYCQQGNTLPYTFGQGTKVEIKR
As for B1, in assay [1], the Kd is 2.2 nM.

B2: AV1-based activatable anti-IL6R antibody with Generation 1 mask Peptide 1 and substrate MMP/BV728 (antibody, V domains shown)
VH: QVQLQESGPGLVRPSQTLSLTCTVSGYSITSDHAWSWVRQPPGRGLEWIGYISYSGITTYNPSLKSRVTISRDNSKNTLYLQMNSLRAEDTAVYYCARSLARTTAMDYWGQGSLVTVSS
VL: YRSCNWNYVSIFLDCDIQMTQSPSSLSASVGDRVTITCRASQDISSYLNWYQQKPGKAPKLLIYYTSRLHSGVPSRFSGSGSGTDFTFTISSLQPEDIATYYCQQGNTLPYTFGQGTKVEIKR
In the case of B2, the Kd in assay [2] worked out at 19.2 nM.

These data come from US20200339694A1 (published 2020).
